Test results taken from the supplement of paper PMC10567573.

B1: KLHL13 (parent)
chain: TGEFLKLPFERLAFVLSSNSLKHC
B2: PKD2L1 (parent)
chain: SGPEAARAGGWVSGEEFYMLTRRV

Variants of: B1
Experiment: protein stability index of a GFP-peptide fusion (GPS, HEK-293T) (PSI 1-6); higher = more stable
Details: c terminus: a fixed tail appended
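Also: lentivirally expressed fusions sorted by FACS into six bins by GFP to DsRed ratio, PSI derived from sequencing read proportions per bin multiplied by bin number.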

Protein stability index, by site and new letter:
L7: K 1.86, A 1.73, I 3.09, E 1.08, P 2.87, T 3.88, Q 1.19, W 4.29, D 1.25
P8: N 2.66, C 1.84, D 1.58, Y 4.25, M 3.97, T 3.92, Q 1.41
K6: S 3.28, A 3.83, P 2.01, D 1.38, L 3.24, T 2.73, C 2.54, I 2.34
L5: C 2.26, R 2.16, T 2.54, Y 1.8, H 1.78, Q 2.06, N 1.52, D 2.48, K 1.85, E 1.72, A 1.6
E3: R 2.35, Q 4.44, Y 3.14, A 2.21, H 2.67, N 5.52, G 4.77, D 3.15, T 1, V 2.28, P 2.66
G2: F 3.56, I 4.78, K 2.12, N 2.52, H 3.72
F4: W 2.03, N 1.48, D 1.55, E 1.42, R 1.13, I 1.31, Y 2.4, A 2.92, K 1.78, S 3.3, G 1.45, P 1.62
F9: G 2.18, D 2.04, E 2.22, C 1.82, A 2.33
T1: Q 2.82, E 2.1, H 3.25, R 3.17, L 3.16

Variants of: B2
Experiment: as above
Details: c terminus: a fixed tail appended

Protein stability index: each site, then its substitutions
Y18: M 2.84, C 3.05, K 4.08, Q 3.03, G 3.44, R 3.55, D 3.94, N 3.69, V 2.89, H 3.46, T 3.52, L 2.56, W 2.69, P 3.21, E 3.77, F 2.23, A 3.38, I 2.32, S 3.4
T21: V 1.57, Y 1.6, M 2.67, I 1.75, P 3.33, H 2.27, Q 2.94, A 2.41, D 3.76, R 3.1, W 2.12, C 2.29, N 2.9, S 2.62, F 1.5, K 3.71, L 2.62, G 3.08, E 3.29
E15: K 2.92, F 3.15, H 2.17, C 1.54, A 1.86, D 2.54, Q 2.16, R 2.62, Y 1.65, V 2.03, W 1.99, L 2.02, I 1.59, M 1.48, N 2.46, S 2.1, T 2.45, G 2.2, P 2.52
E16: H 1.64, A 1.92, R 1.93, S 2.73, V 1.64, K 2.5, M 2.7, N 2.42, W 2.42, I 2.23, G 2.6, Y 2.02, T 2.26, C 1.56, D 2.29, F 2.75, Q 2.25, P 1.78, L 1.76
L20: T 2.81, D 4.19, A 3.16, R 3.79, S 3.61, F 1.81, M 2.93, N 3.79, Q 3.1, V 2.25, H 2.69, W 1.73, C 2.97, K 3.46, P 3.94, Y 2.74, I 2.01, G 4.08
